Test results published in patent US8013115B1, “Use of stabilised synthetic compounds in immunoassay” (Bio-Rad Pasteur, priority 1999, dated 2011).
[ ]: non-standard residue; d: D form. Hx = not defined here

Columns and labels:
[1] = format: physicochemical
Method: (§1) The stability of the compounds PEP 5, PEP 9 and PEP 10 was evaluated by ELISA assay, with chemiluminescence reading (signal expressed in Relative Luminescence Units or RLU), with the aid of the automated device Access® from the company Beckman, distributed by Bio-Rad (Marnes la Coquette, France), and then compared with that of a prior art noncyclized reference biepitopic compound (TRP 1116 Ac) analysed in the same manner.

[2] = Linearity of the dilution curves / dilutability, ELISA signal (RLU) versus dilution
Method: as §1
Standard for acceptance of the dilutions: the ratio experimental signal/theoretical signal at a given dilution should be equal to 1.00±0.2, for the compound to be dilutable. The dilutions giving signals of less than 100 000 RLU units should not be taken into account.
Results expressed in signal units (RLU)

[3] = target: antibodies of the ELISA assay with chemiluminescence reading on the automated device Access (Beckman); test: ELISA immunoassay, chemiluminescence, Access device; compound diluted 1/100 000
[4] = target: antibodies of the ELISA assay with chemiluminescence reading on the automated device Access (Beckman); test: ELISA immunoassay, chemiluminescence, Access device; compound diluted 1/50 000
[5] = target: antibodies of the ELISA assay with chemiluminescence reading on the automated device Access (Beckman); test: ELISA immunoassay, chemiluminescence, Access device; compound diluted 1/300 000
[6] = target: antibodies of the ELISA assay with chemiluminescence reading on the automated device Access (Beckman); test: ELISA immunoassay, chemiluminescence, Access device; compound diluted 1/20 000
[7] = target: antibodies of the ELISA assay with chemiluminescence reading on the automated device Access (Beckman); test: ELISA immunoassay, chemiluminescence, Access device; compound diluted 1/10 000
[8] = target: antibodies of the ELISA assay with chemiluminescence reading on the automated device Access (Beckman); test: ELISA immunoassay, chemiluminescence, Access device; compound diluted 1/40 000

| Experimental signal (RLU) [3] [RLU] | Experimental signal (RLU) [4] [RLU] | Experimental signal (RLU) [5] [RLU] | Experimental signal (RLU) [6] [RLU] | Experimental signal (RLU) [7] [RLU] | Experimental signal (RLU) [8] [RLU] | Molecule | Stability ratio signal at DO + 24 H/signal at DO [1] | Experimental signal ([2]; dilution 1/10 000) | Experimental signal ([2]; dilution 1/20 000) | Experimental signal ([2]; dilution 1/40 000) | Experimental signal ([2]; dilution 1/50 000) | Experimental signal ([2]; dilution 1/100 000) | Experimental signal ([2]; dilution 1/300 000) |
| --- | --- | --- | --- | --- | --- | --- | --- | --- | --- | --- | --- | --- | --- |
| – | – | – | – | – | – | Ac-GSSNYRAYA-(TEPH)-AKK-Hx-PLELAGLG-(FAEL)-QDLCRQ-NH2 (SEQ ID NO: 6) (Ac-GSSNYRAYATEPHAKK[Hx]PLELAGLGFAELQDLCRQ-NH2; not fully specified; printed as Ac-GSSNYRAYA-(TEPH)-AKK-Hx-PLELAGLG-(FAEL)-QDLCRQ-NH2; reading uncertain; also: TEPH, Hx, FAEL described as non-natural linkers) [TRP 1116 Ac] | 0.77 | 11 039 697 RLU | 3 779 387 RLU | 1 573 457 RLU | 1 125 417 RLU | 471 714 RLU | 132 054 RLU |
| 472000 | 1.13e+06 | 132000 | 3.78e+06 | 1.1e+07 | 1.57e+06 | Ac-GSSNYRAYATEPHAKK[Hx]PLELAGLGFAELQDLCRQ-NH2 (reading uncertain; also: printed as Ac-GSSNYRAYA-(TEPH)-AKK-Hx-PLELAGLG-(FAEL)-QDLCRQ-NH2) [peptide TRP 1116 Ac: Ac-…-(TEPH)-AKK-Hx-PLELAGLG-(FAEL)-QDLCRQ-NH2] | – | – | – | – | – | – | – |
